B1: GB1-polyproline peptide P10 (peptide)
chain: GAMSGSPPPPPPPPPPSGSN
B2: GB1-tagged polyproline peptide P16 (peptide)
chain: GAMSGSPPPPPPPPPPPPPPPPSGSN

Target: PRPF40A WW12 (tandem WW domains, residues 141-236) (human, UniProt O75400 141-236)
Assay: ITC

Sequence of PRPF40A WW12 (tandem WW domains, residues 141-236) (O75400 141-236): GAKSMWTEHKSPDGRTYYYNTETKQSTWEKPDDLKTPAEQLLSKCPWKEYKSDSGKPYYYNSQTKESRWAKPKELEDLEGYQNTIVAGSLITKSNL

Binder	Kd [µM]
B1	28.6
B2	3.35
